# Laboratory results taken from publication PMC4555227, “GABPα Binding to Overlapping ETS and CRE DNA Motifs Is Enhanced by CREB1: Custom DNA Microarrays”.
# Substitutions are numbered along the chain they refer to.
# T1: GABPα-GST (ETS domain) (UniProt Q00422 320-400)
# T1 sequence: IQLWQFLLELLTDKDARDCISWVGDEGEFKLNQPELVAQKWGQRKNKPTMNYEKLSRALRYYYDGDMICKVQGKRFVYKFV
# T2: GABPα-GST (ETS domain);CREB1 B-ZIP domain (mouse?;mouse, UniProt Q00422;Q01147 320-400;269-327, |)
# T2 sequence 1: T1 sequence
# T2 sequence 2: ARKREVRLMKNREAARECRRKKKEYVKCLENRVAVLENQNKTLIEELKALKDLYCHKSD
# B1: ETS-CRE GC motif probe (dsDNA)
# DNA 1: GTCCTCAAGAGCGGAAGTGACGTCACGACTCAGGTGGGACACACTTTAACACATGGAGAG
# DNA 2: CTCTCCATGTGTTAAAGTGTGTCCCACCTGAGTCGTGACGTCACTTCCGCTCTTGAGGAC
# B2: CC SNP CCGGAACT (dsDNA)
# DNA 1: B1 DNA 1 with G11C, G17C
# DNA 2: B1 DNA 2 with C44G, C50G
# B3: CC SNP CCGGACGT (dsDNA)
# DNA 1: B1 DNA 1 with G11C, A16C
# DNA 2: B1 DNA 2 with T45G, C50G
# B4: CC SNP CGGGAAGT (dsDNA)
# DNA 1: B1 DNA 1 with G11C, C12G
# DNA 2: B1 DNA 2 with G49C, C50G
# B5: CC SNP CCGGAAA(T) (dsDNA)
# DNA 1: B1 DNA 1 with G11C, G17A
# DNA 2: B1 DNA 2 with C44T, C50G
# B6: CC SNP TCGGAAGT (dsDNA)
# DNA 1: B1 DNA 1 with G11T
# DNA 2: B1 DNA 2 with C50A
# B7: GC SNP GCGGAACT (dsDNA)
# DNA 1: B1 DNA 1 with G17C
# DNA 2: B1 DNA 2 with C44G
# B8: GC SNP GGGGAAGT (dsDNA)
# DNA 1: B1 DNA 1 with C12G
# DNA 2: B1 DNA 2 with G49C
# B9: GC SNP GCGGAAA(T) (dsDNA)
# DNA 1: B1 DNA 1 with G17A
# DNA 2: B1 DNA 2 with C44T
# Biological target: T1, GABPα-GST (ETS domain)
# Test: PBM; GABPα-GST alone; PBM as in Badis et al. 2009 (buffer, salt, pH, temperature not stated); IVT proteins from 2.5-100 ng plasmid; Alexa Fluor 647 anti-GST detection
# Conditions: protein: ivt; tags: GST; blunt
row,Binder,binding signal [fold weaker than N1]
1,B1,4

# Biological target: T2, GABPα-GST (ETS domain);CREB1 B-ZIP …
# Test: PBM; 8 ng:8 ng plasmid; PBM as in Badis et al. 2009 (buffer, salt, pH, temperature not stated); IVT proteins from 2.5-100 ng plasmid; Alexa Fluor 647 anti-GST detection
# Conditions: protein: ivt;ivt; tags: GST;none; copies: 1;2; blunt
row,Binder,binding signal
1,B2,20 fold increase by CREB1
2,B3,"< 20 fold increase by CREB1 (up to; abstract up to 23, most enhanced SNP)"
3,B4,~16 fold increase by CREB1
4,B5,2 fold increase by CREB1
5,B6,< 20 fold increase by CREB1 (up to)

# Biological target: T2, GABPα-GST (ETS domain);CREB1 B-ZIP …
# Test: as above
# Conditions: protein: ivt;ivt; tags: GST;none; copies: 1;2; blunt
# Remark: another data set of the same source
row,Binder,binding signal [fold increase by CREB1]
1,B7,8
2,B8,~8
3,B9,16
